Patent US20260176377A1 (Hoffmann-La Roche, published 2026)

Target: T1, extracellular domain (ECD) of human IL-7Rα fused to biotinylated Fc knob-into-hole (P1AI1009) (human, UniProt P0DOX5 223-448 = IgG part, biotinylated at C-terminal AviTag)
T1 construct: also called human IL-7Rα-Fc; human IL-7Rα antigen
Test: ELISA, soluble VHH supernatants on neutravidin plates with biotinylated IL-7Rα-Fc versus biotinylated Fc, anti-His-HRP
Procedure: Round 3 and round 4 enrichment libraries were screened for target specificity vs Fc specificity by ELISA. Individual VHH clones were expressed in 1 ml E. coli cultures in a 96-well plate and supernatants containing soluble VHH were screened for specificity by ELISA. Supernatants were transferred to neutravidin 96-well plates coated with biotinylated Fc (P1AE6073) or target Fc-tagged biotinylated antigen (P1AI1009). Following incubation for 1 hour at 20° C., plates were washed 3 times with PBST and 3 times with PBS. HRP-conjugated anti-His antibody (Sigma, Cat. No: A7058) was added to wells at 1:2000 dilution and plates were incubated for 1 hour at 20° C. Plates were washed 3 times with PBST followed by 3 washes with PBS. Plates were developed by adding 1-Step Ultra TMB-ELISA substrate (Thermo Fisher Scientific, Cat. No: 34028) and reactions were quenched with sulfuric acid. Absorbance at 450 nm was measured using a Tecan infinite M1000 Pro and reference absorbance values were measured at 650 nm. Reference-subtracted absorbance values at 450 nm were represented as stacked bar charts for round 3 library 1 and library 2 (FIG. 40A and B, respectively) and round 4 library 1 and library 2 (FIG. 40C and D, respectively). […] 16 target-specific VHH were selected and subsequently cloned into bispecific heavy chain antibody formats.

Row | Binder | binding result
1 | IL-7Rα_7 VHH (VHH, soluble VHH, detected with anti-His antibody) VHH: QVQLVESGGGLVQPGGSLRLSCAASGFTFSNYAMSWYRQAPGKERELVASISVFGGGTNYADSVKGRFTISRDNAKNTVYLQMNSLKPEDSAVYYCNKRRYDDYWGQGTQVTVSS | binds
2 | IL-7Rα_1 VHH (VHH, soluble VHH, detected with anti-His antibody) VHH: QVQLVESGGGLVQPGGSLRLSCAASGFTFSQRIMSWYRQAPGKERELVASISPFGDGTRYADSVKGRFTISRDNARNQLYLQMNTLKPEDTAVYYCNKRNLEISDDWGQGTQVTVSS | binds
3 | IL-7Rα_5 VHH (VHH, soluble VHH, detected with anti-His antibody) VHH: QVQLVESGGGLVQPGGSLRLSCAASGFTFSQRIMSWYRQAPGKEHELVASISPFGDGTRYADSVKGRFTISRDNARNQLYLQMNSLEFEDTAVYYCNKRNLDVSDDWGQGTQVTVSS | binds
4 | IL-7Rα_14 VHH (VHH, soluble VHH, detected with anti-His antibody) VHH: QVQLVESGGGLVQPGGSLRLSCAASGFTFSQRIMSWYRQAPGKERELVASVSPFGDGTRYADSVKGRFTISRDNAKSQLYLQMNNLKFEDTAVYYCNKRNLEISDAWGQGTQVTVSS | binds
5 | IL-7Rα_4 VHH (VHH, soluble VHH, detected with anti-His antibody) VHH: QVQLVESGGGLVQPGGSLRLSCTTSGFTFTTYAMKWVRQAPGKGLEWVAFISPAGGITDYADSVKGRFTISRDNAKETLYLRMDSLKPEDTAVYYCARGDSDTNNNRGQGTQVTVSS | binds
6 | IL-7Rα_8 VHH (VHH, soluble VHH, detected with anti-His antibody) VHH: QVQLVESGGGLVQPGGSLRLSCAASGFTISSWSMKWVRQAPGKGPEWVSYISPGGGSLDYLDSVKGRFTISRDNAKNTVYLQMSNLKSEDTALYWCATGTGPTRGQGTQVTVSS | binds
7 | IL-7Rα_15 VHH (VHH, soluble VHH, detected with anti-His antibody) VHH: QVQLVESGGGLVQPGGSLRLSCAASGFTISSWSMKWVRQAPGKGPEWVSYISPGGGSLDYHHSVKGRFTISRDNARNTVYLQMSNLQSEDTALYWCATGTGETRGQGTQVTVSS | binds
8 | IL-7Rα_11 VHH (VHH, soluble VHH, detected with anti-His antibody) VHH: QVQLVESGGGLVQPGGSLRLSCEASGFTISSWSMKWVRQAPGKGPEWVSYISPGGGSLDYHHSVKGRFTISRDNARNTVYLQMSNLQSEDTALYWCATGTGETRGQGTQVTVSS | binds
9 | IL-7Rα_9 VHH (VHH, soluble VHH, detected with anti-His antibody) VHH: QVQLVESGGGLVQPGGSLRLSCAASGFTISTWSMKWVRQAPGKGPEWVSYISPGGTSLDYQDSVKGRFTISRDNAKNTVYLQMNNLKSEDTALYWCATGTGETRGQGTQVTVSS | binds
10 | IL-7Rα_12 VHH (VHH, soluble VHH, detected with anti-His antibody) VHH: QVQLVESGGGLVQPGGSLRLSCAASGFTISSRSMKWVRQAPGKGPEWVSYISPGGGTVDYQDSVKGRFTISRDNAKNTVYLQMSNLKSEDTALYWCATGTGPTRGRGTQVTVSS | binds
11 | IL-7Rα_2 VHH (VHH, soluble VHH, detected with anti-His antibody) VHH: QVQLVESGGGLVQPGGSLRLSCEVSGIRFSLRNMHWYRQASGRQREWVATITAGGVTGYRDSVKGRFTISRDNAKNTVDLQMNGLQLEDTAVYYCNHGDTAYWGQGTQVTVSS | binds
12 | IL-7Rα_13 VHH (VHH, soluble VHH, detected with anti-His antibody) VHH: QVQLVESGGGLVRPGGSLRLACAASGIRFSLRNMHWYRQASGRQREWVATITAGGVTGYRDSVKGRFTISRDNAKNTVDLQMNGLQLEDTAVYYCNHGDTAYWGQGTQVTVSS | binds
